B1: Protein PTHB1 (Homo sapiens), Q3SYG4 (parent)
chain: MSLFKARDWWSTILGDKEEFDQGCLCLANVDNSGNGQDKIIVGSFMGYLRIFSPHPAKTGDGAQAEDLLLEVDLRDPVLQVEVGKFVSGTEMLHLAVLHSRKLCVYSVSGTLGNVEHGNQCQMKLMYEHNLQRTACNMTYGSFGGVKGRDLICIQSMDGMLMVFEQESYAFGRFLPGFLLPGPLAYSSRTDSFLTVSSCQQVESYKYQVLAFATDADKRQETEQQKLGSGKRLVVDWTLNIGEQALDICIVSFNQSASSVFVLGERNFFCLKDNGQIRFMKKLDWSPSCFLPYCSVSEGTINTLIGNHNNMLHIYQDVTLKWATQLPHIPVAVRVGCLHDLKGVIVTLSDDGHLQCSYLGTDPSLFQAPNVQSRELNYDELDVEMKELQKIIKDVNKSQGVWPMTEREDDLNVSVVVSPNFDSVSQATDVEVGTDLVPSVTVKVTLQNRVILQKAKLSVYVQPPLELTCDQFTFEFMTPDLTRTVSFSVYLKRSYTPSELEGNAVVSYSRPTDRNPDGIPRVIQCKFRLPLKLICLPGQPSKTASHKITIDTNKSPVSLLSLFPGFASQSDDDQVNVMGFHFLGGARITVLASKTSQRYRIQSEQFEDLWLITNELILRLQEYFEKQGVKDFACSFSGSIPLQEYFELIDHHFELRINGEKLEELLSERAVQFRAIQRRLLARFKDKTPAPLQHLDTLLDGTYKQVIALADAVEENQGNLFQSFTRLKSATHLVILLIALWQKLSADQVAILEAAFLPLQEDTQELGWEETVDAAISHLLKTCLSKSSKEQALNLNSQLNIPKDTSQLKKHITLLCDRLSKGGRLCLSTDAAAPQTMVMPGGCTTIPESDLEERSVEQDSTELFTNHRHLTAETPRPEVSPLQGVSE
partner: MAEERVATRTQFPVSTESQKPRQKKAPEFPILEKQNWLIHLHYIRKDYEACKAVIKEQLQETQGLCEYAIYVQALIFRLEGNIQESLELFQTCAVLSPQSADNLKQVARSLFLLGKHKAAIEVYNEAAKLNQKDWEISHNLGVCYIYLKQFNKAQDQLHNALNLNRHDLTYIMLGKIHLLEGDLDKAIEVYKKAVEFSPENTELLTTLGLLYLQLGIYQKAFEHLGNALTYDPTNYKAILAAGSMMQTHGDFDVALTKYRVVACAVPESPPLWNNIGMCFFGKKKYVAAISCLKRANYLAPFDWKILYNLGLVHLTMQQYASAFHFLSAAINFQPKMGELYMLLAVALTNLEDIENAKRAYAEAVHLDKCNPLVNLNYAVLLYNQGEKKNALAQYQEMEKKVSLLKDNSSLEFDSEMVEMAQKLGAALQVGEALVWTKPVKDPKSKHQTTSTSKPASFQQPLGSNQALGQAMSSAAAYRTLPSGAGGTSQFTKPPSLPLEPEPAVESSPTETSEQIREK

Variants of: B1
Conditions: with bbs4_human BBS4, Q96RK4

Variant	effect of a mutation on the interaction
Q672E	with no effect
Q672A	with no effect
Q672K	with no effect
T688K	with no effect
T688A	with no effect
T688E	with no effect
A670K	with no effect
A670E	with no effect
R679W	disrupting interaction strength
R679K	with no effect
R679A	with no effect
R679E	with no effect
R679L	disrupting interaction strength
I676A	with no effect
I676E	with no effect
I676K	with no effect
R678G	disrupting interaction strength
R678K	disrupting interaction strength
R678H	disrupting interaction strength
R678A	with no effect
R678E	with no effect
E654K	disrupting interaction strength
E654A	disrupting interaction strength
Y703A	with no effect

Variant	effect of a mutation on the interaction
Y703K	with no effect
Y703H	disrupting interaction strength
Y703E	with no effect
Q677A	with no effect
Q677K	with no effect
Q677Y	disrupting interaction strength
Q677E	with no effect
S667K	with no effect
S667E	with no effect
S667A	with no effect
R669K	with no effect
R669A	with no effect
R669E	with no effect
D696V	disrupting interaction strength
D696K	with no effect
D696N	disrupting interaction strength
D696A	with no effect
D696E	with no effect
A690K	disrupting interaction strength
A690V	disrupting interaction strength
A690E	with no effect
G701A	with no effect
G701E	disrupting interaction strength
G701K	with no effect

Variant	effect of a mutation on the interaction
V671E	with no effect
V671R	disrupting interaction strength
V671K	with no effect
V671A	with no effect
V671I	disrupting interaction strength
L681A	with no effect
L681E	with no effect
L681K	with no effect
E664A	with no effect
E664K	with no effect
Q693K	with no effect
Q693A	disrupting interaction strength
Q693E	with no effect
T702R	disrupting interaction strength
T702C	disrupting interaction strength
T702E	with no effect
T702K	with no effect
T702A	with no effect
L680E	with no effect
L680K	with no effect
L680A	with no effect
K687A	with no effect
K687E	with no effect
A682K	with no effect

Variant	effect of a mutation on the interaction
A682E	with no effect
A675H	disrupting interaction strength
A675E	with no effect
A675K	with no effect
I657A	with no effect
I657E	with no effect
I657K	with no effect
H694E	disrupting interaction strength
H694A	with no effect
H694Y	disrupting interaction strength
H694K	with no effect
N658A	with no effect
N658K	with no effect
N658E	with no effect
P689A	with no effect
P689E	with no effect
P689K	with no effect
P691L	disrupting interaction strength
P691S	disrupting interaction strength
P691K	with no effect
P691A	with no effect
P691E	with no effect
D686E	with no effect
D686A	with no effect

Variant	effect of a mutation on the interaction
D686K	with no effect
L655E	with no effect
L655A	with no effect
L655K	with no effect
K661A	with no effect
K661E	with no effect
R656A	with no effect
R656E	with no effect
R656K	with no effect
K704A	with no effect
K704E	with no effect
R674Q	disrupting interaction strength
R674E	with no effect
R674K	with no effect
R674P	disrupting interaction strength
R674A	disrupting interaction strength
R674W	disrupting interaction strength
T697E	with no effect
T697C	disrupting interaction strength
T697K	with no effect
T697A	with no effect
L666K	with no effect
L666A	with no effect
L666E	disrupting interaction strength

Variant	effect of a mutation on the interaction
K685A	with no effect
K685E	disrupting interaction strength
Q705A	with no effect
F673K	with no effect
F673E	with no effect
F673A	with no effect
F684E	with no effect
F684K	with no effect
F684A	with no effect
L662K	with no effect
L662A	with no effect
L662E	with no effect
E668K	with no effect
E668A	with no effect
E663A	with no effect
E663K	with no effect
G659K	with no effect
G659A	with no effect
G659E	with no effect
G659D	disrupting interaction strength
R683A	with no effect
R683E	with no effect
R683K	with no effect
L692A	disrupting interaction strength

Variant	effect of a mutation on the interaction
L692E	with no effect
L692K	with no effect
L699E	with no effect
L699A	with no effect
L699K	disrupting interaction strength
L665A	with no effect
L665K	with no effect
L665F	disrupting interaction strength
L665E	with no effect
L665R	disrupting interaction strength
L695M	disrupting interaction strength
L695K	with no effect
L695E	with no effect
L695A	with no effect
L698K	with no effect
L698E	disrupting interaction strength
L698A	with no effect
L698S	disrupting interaction strength
D700E	with no effect
D700A	with no effect
D700K	with no effect
E660A	with no effect
E660K	with no effect

Reference: IntAct's records for PubMed 29039417
